Laboratory results reported in article PMC5807052, “Robo1 Forms a Compact Dimer-of-Dimers Assembly” (Structure(London, England:1993), 2018).
Where “and” joins values, the source holds several entries; their conditions need not be identical. Equal values may be shown once.

B1: Robo1 ECDb (human Robo1 whole ectodomain, residues 61-864) (domain or fragment, UniProt Q9Y6N7-1 61-864, looked up)
chain: LRQEDFPPRIVEHPSDLIVSKGEPATLNCKAEGRPTPTIEWYKGGERVETDKDDPRSHRMLLPSGSLFFLRIVHGRKSRPDEGVYVCVARNYLGEAVSHNASLEVAILRDDFRQNPSDVMVAVGEPAVMECQPPRGHPEPTISWKKDGSPLDDKDERITIRGGKLMITYTRKSDAGKYVCVGTNMVGERESEVAELTVLERPSFVKRPSNLAVTVDDSAEFKCEARGDPVPTVRWRKDDGELPKSRYEIRDDHTLKIRKVTAGDMGSYTCVAENMVGKAEASATLTVQEPPHFVVKPRDQVVALGRTVTFQCEATGNPQPAIFWRREGSQNLLFSYQPPQSSSRFSVSQTGDLTITNVQRSDVGYYICQTLNVAGSIITKAYLEVTDVIADRPPPVIRQGPVNQTVAVDGTFVLSCVATGSPVPTILWRKDGVLVSTQDSRIKQLENGVLQIRYAKLGDTGRYTCIASTPSGEATWSAYIEVQEFGVPVQPPRPTDPNLIPSAPSKPEVTDVSRNTVTLSWQPNLNSGATPTSYIIEAFSHASGSSWQTVAENVKTETSAIKGLKPNAIYLFLVRAANAYGISDPSQISDPVKTQDVLPTSQGVDHKQVQRELGNAVLHLHNPTVLSSSSIEVHWTVDQQSQYIQGYKILYRPSGANHGESDWLVFEVRTPAKNSVVIPDLRKGVNYEIKARPFFNEFQGADSEIKFAKTLEEAPSAPPQGVTVSKNDGNGTAILVSWQPPPEDTQNGMVQEYKVWCLGNETRYHINKTVDGSTFSVVIPFLVPGIRYSVEVAASTGAGSGVKS
notes: Robo1, human, whole ectodomain construct ECDb, residues 61-864 of NP_002932; Cloned into a modified pTT3 vector that encodes a signal peptide and a C-terminal hexa-histidine tag; also called pTT3_Robo1_ECDb; source: HEK-293T, transient expression, secreted, purified (Ni-sepharose, SEC Superdex S200)
B2: Robo1 ECDa (human Robo1 ectodomain, residues 61-853) (domain or fragment, UniProt Q9Y6N7-1 61-853, looked up)
chain: LRQEDFPPRIVEHPSDLIVSKGEPATLNCKAEGRPTPTIEWYKGGERVETDKDDPRSHRMLLPSGSLFFLRIVHGRKSRPDEGVYVCVARNYLGEAVSHNASLEVAILRDDFRQNPSDVMVAVGEPAVMECQPPRGHPEPTISWKKDGSPLDDKDERITIRGGKLMITYTRKSDAGKYVCVGTNMVGERESEVAELTVLERPSFVKRPSNLAVTVDDSAEFKCEARGDPVPTVRWRKDDGELPKSRYEIRDDHTLKIRKVTAGDMGSYTCVAENMVGKAEASATLTVQEPPHFVVKPRDQVVALGRTVTFQCEATGNPQPAIFWRREGSQNLLFSYQPPQSSSRFSVSQTGDLTITNVQRSDVGYYICQTLNVAGSIITKAYLEVTDVIADRPPPVIRQGPVNQTVAVDGTFVLSCVATGSPVPTILWRKDGVLVSTQDSRIKQLENGVLQIRYAKLGDTGRYTCIASTPSGEATWSAYIEVQEFGVPVQPPRPTDPNLIPSAPSKPEVTDVSRNTVTLSWQPNLNSGATPTSYIIEAFSHASGSSWQTVAENVKTETSAIKGLKPNAIYLFLVRAANAYGISDPSQISDPVKTQDVLPTSQGVDHKQVQRELGNAVLHLHNPTVLSSSSIEVHWTVDQQSQYIQGYKILYRPSGANHGESDWLVFEVRTPAKNSVVIPDLRKGVNYEIKARPFFNEFQGADSEIKFAKTLEEAPSAPPQGVTVSKNDGNGTAILVSWQPPPEDTQNGMVQEYKVWCLGNETRYHINKTVDGSTFSVVIPFLVPGIRYSVEVA
notes: Robo1, human, ectodomain construct ECDa, residues 61-853 of NP_002932; lacks the last beta-strand of Fn3; Cloned into a modified pTT3 vector that encodes a signal peptide and a C-terminal hexa-histidine tag; also called pTT3_Robo1_ECDa; source: HEK-293T, transient expression, secreted, purified (Ni-sepharose, SEC Superdex S200)

How the values were obtained:
[1] = biological target: the molecule itself; assay: negative-stain EM reconstruction; GraFix-stabilised sample (fraction 12), ammonium molybdate stain, 100 kV; 3D map with D2 symmetry, 16 Å (FSC 0.143), filtered to 20 Å
[2] = biological target: the molecule itself; assay: SEC-MALS; Superdex S200 HR 10/30, 200 mM NaCl, 20 mM Tris pH 7.5; 55 ul of Robo1 ECDa at 2.5 mg/ml from peak 1 of the SEC
[3] = biological target: the molecule itself; assay: SEC; Superdex S200, 200 mM NaCl, 20 mM Tris pH 7.5; self-association of Robo1 ECD

| Protein | binding result [1] | stoichiometry N [2] | stoichiometry N [3] |
| --- | --- | --- | --- |
| B1 | binds | – | – |
| B2 | – | 1 | 4 and 2 |
